{"source": "paper PMC9590162", "molecular_target": "human nesfatin-1 (human) (UniProt P80303)", "assay": "AUC; SV-AUC, 20 °C, 50 000 rpm, buffer B with 300 or 500 μM ZnCl2; hN1 at 0.7, 1.0, 1.3 mg/ml; monomer to dimer", "note": "“And” between values parts separate entries of the source, which are not always exact repeats. Identical values can stand only once.", "data": [{"substance": "human nesfatin-1 (from UniProt P80303 25-106) (peptide)", "values": [{"measurement": "percent of the two main sedimenting species in the larger (dimer) fraction", "value": "58% and 45% and 51%"}, {"measurement": "stoichiometry N", "value": 2}]}]}
